Measured values as given in the supplement of paper PMC7877785.
± gives the uncertainty stated by the source.

Experiment: self-splicing fitness, log relative to wild type (ln ratio); higher = more splicing; Tetrahymena group I intron in knt gene, E. coli kanamycin selection, DiMSum; sequences stand for … in CUCUCU…GGAGGGAAAAGUUAUCAGGCAUGCACCUGGUAGCUAGUCUUUAAACCAAUAGAUUGCAUCGGUUUAAAAGGCAAGACCGUCAAAUUGCGGGAAAGGGGUCAACAGCCGUUCAGUACCAAGUCUCAGGGGAAACUUUGAGAUGGCCUUGCAAAGGGUAUGGUAAUAAGCUGACGGACAUGGUCCUAACCACGCAGCCAAGUCCUAAGUCAACAGAUCUUCUGUUGAUAUGGAUGCAGUUCACAGACUAAAUGUCGGUCGGGGAAGAUGUAUUCUUCUCAUAAGAUAUAGUCGGACCUCUCCUUAAUGGGAGCUAGCGGAUGAAGUGAUGCAACACUGGAGCCGCUGGGAACUAAUUUGUAUGCGAAAGUAUAUUGAUUAGUUUUGGAGUACUCGUGGUCG
In short: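 Library with all eight P1ex-region intron nucleotides randomised, intron inside the knt kanamycin-resistance gene on pET-22b(+), in E. coli BL21(DE3). Cells grew overnight at 37°C or 30°C on LB agar with or without 25 μg/mL kanamycin (plus 100 μg/mL carbenicillin, 50 μM IPTG, 0.2% rhamnose), in six replicate transformations. Pooled colonies were amplicon-sequenced on Illumina HiSeq 2500. DiMSum fitness is the error-weighted combination of wild-type-normalised replicate fold changes, kanamycin versus none.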

Row | Sequence | self-splicing fitness (ln) (30 °C) | self-splicing fitness (ln) (37 °C)
1 | UGCGAGCAAUAUUACGCAGG | -4.38 ± 0.46 | -2.18 ± 0.28
2 | UAACAGCAAUAUUACGGGUC | -3.89 ± 0.17 | -2.62 ± 0.2
3 | UCCAAGCAAUAUUACGCACU | -2.28 ± 0.15 | -0.918 ± 0.14
4 | CGACAGCAAUAUUACGGUUU | -1.64 ± 0.058 | -0.714 ± 0.084
5 | ACACAGCAAUAUUACGCUGA | -2.42 ± 0.096 | -1.47 ± 0.083
6 | CCACAGCAAUAUUACGGCAG | -1.16 ± 0.072 | -0.579 ± 0.085
7 | GAACAGCAAUAUUACGCGAC | -2.3 ± 0.14 | -2.36 ± 0.18
8 | CAAUAGCAAUAUUACGCAUU | -4.62 ± 0.24 | -2.71 ± 0.17
9 | ACCUAGCAAUAUUACGUAAA | -2.13 ± 0.096 | -1.47 ± 0.12
10 | UGUAAGCAAUAUUACGUGUC | -3.77 ± 0.2 | -2.01 ± 0.17
11 | GUUUAGCAAUAUUACGAUGU | -1.16 ± 0.11 | -0.261 ± 0.14
12 | UACCAGCAAUAUUACGCUUU | -1.86 ± 0.093 | -0.589 ± 0.1
13 | UGAGAGCAAUAUUACGGGGA | -3.16 ± 0.43 | -2.77 ± 0.27
14 | GCCGAGCAAUAUUACGAGGG | -3.58 ± 0.27 | -1.91 ± 0.22
15 | AGCUAGCAAUAUUACGUUCG | -2.57 ± 0.14 | -2.41 ± 0.23
16 | AUAUAGCAAUAUUACGCUCA | -0.563 ± 0.18 | 0.319 ± 0.22
17 | GUAGAGCAAUAUUACGGCUC | -1.57 ± 0.26 | -0.26 ± 0.45
18 | GCACAGCAAUAUUACGUGGU | -3.37 ± 0.12 | -1.82 ± 0.097
19 | UUAAAGCAAUAUUACGGCGA | 0.464 ± 0.17 | 0.659 ± 0.21
20 | GUGAAGCAAUAUUACGCCAU | -2.07 ± 0.13 | -1.14 ± 0.15
21 | CCAUAGCAAUAUUACGUCUG | -1.4 ± 0.075 | -0.687 ± 0.07
22 | GCGAAGCAAUAUUACGGUCG | -3.65 ± 0.32 | -2.77 ± 0.4
23 | GCAGAGCAAUAUUACGUCUG | -3.95 ± 0.33 | -3.13 ± 0.47
24 | GAAUAGCAAUAUUACGGGUU | -2.48 ± 0.14 | -1.86 ± 0.17
25 | GCGCAGCAAUAUUACGGAAU | -1.12 ± 0.13 | -0.337 ± 0.15
26 | GAAAAGCAAUAUUACGAAUC | -2.99 ± 0.21 | -1.04 ± 0.18

Row | Sequence | self-splicing fitness (ln) (30 °C) | self-splicing fitness (ln) (37 °C)
27 | AAUCAGCAAUAUUACGAGUA | -1.43 ± 0.081 | 0.415 ± 0.083
28 | CGCCAGCAAUAUUACGAUAA | -3.9 ± 0.46 | -2.78 ± 0.35
29 | CUGCAGCAAUAUUACGGCAA | -0.665 ± 0.094 | 0.202 ± 0.088
30 | AGUGAGCAAUAUUACGACAG | -2.83 ± 0.33 | -1.67 ± 0.34
31 | GUUGAGCAAUAUUACGGCCU | -2.03 ± 0.18 | -0.897 ± 0.2
32 | CCAUAGCAAUAUUACGAAGA | -3.41 ± 0.29 | -2.91 ± 0.34
33 | AAAAAGCAAUAUUACGUACA | -0.777 ± 0.069 | -0.613 ± 0.071
34 | CAGGAGCAAUAUUACGGGCG | -0.762 ± 0.099 | 0.0758 ± 0.14
35 | CGGAAGCAAUAUUACGUUGG | -1.89 ± 0.071 | -0.688 ± 0.077
36 | CUUGAGCAAUAUUACGUAGA | -3.54 ± 0.21 | -3.91 ± 0.39
37 | ACGCAGCAAUAUUACGCACG | -1.8 ± 0.12 | -1.31 ± 0.12
38 | GCCAAGCAAUAUUACGCGUC | -1.31 ± 0.068 | -1.71 ± 0.088
39 | UUGGAGCAAUAUUACGGACA | -2.52 ± 0.49 | -1.91 ± 0.18
40 | ACACAGCAAUAUUACGGAGU | -2.39 ± 0.087 | -2.01 ± 0.11
41 | UCAAAGCAAUAUUACGUGGC | -3.62 ± 0.32 | -2.45 ± 0.32
42 | GACAAGCAAUAUUACGGCAC | 0.362 ± 0.075 | -0.214 ± 0.11
43 | GACGAGCAAUAUUACGUGAC | -2.77 ± 0.31 | -1.48 ± 0.26
44 | GGAUAGCAAUAUUACGCGCU | -2.14 ± 0.23 | -0.904 ± 0.23
45 | AUGAAGCAAUAUUACGCUGG | -1.42 ± 0.1 | -0.718 ± 0.12
46 | AGCAAGCAAUAUUACGGGCC | -3.26 ± 0.23 | -2.32 ± 0.22
47 | UUGUAGCAAUAUUACGUAUG | -1.99 ± 0.14 | -1.42 ± 0.16
48 | AAGAAGCAAUAUUACGGACC | -1.28 ± 0.13 | -0.312 ± 0.18
49 | GACGAGCAAUAUUACGAAUU | -3.49 ± 0.14 | -2.55 ± 0.14
50 | UAGAAGCAAUAUUACGACUA | -0.222 ± 0.11 | 0.71 ± 0.14
51 | AAGAAGCAAUAUUACGUACC | -0.392 ± 0.14 | 0.219 ± 0.19
52 | UAGUAGCAAUAUUACGUCGC | -4.1 ± 0.43 | -2.3 ± 0.28

Row | Sequence | self-splicing fitness (ln) (30 °C) | self-splicing fitness (ln) (37 °C)
53 | AAGGAGCAAUAUUACGAAUC | – | -1.46 ± 0.36
54 | UACUAGCAAUAUUACGGAAC | -3.78 ± 0.34 | -3.03 ± 0.32
55 | GCCCAGCAAUAUUACGCCCA | -0.496 ± 0.15 | -1.1 ± 0.17
56 | ACACAGCAAUAUUACGUAUA | -3.41 ± 0.13 | -2.5 ± 0.12
57 | AGAUAGCAAUAUUACGUGUA | -2.9 ± 0.14 | -1.82 ± 0.12
58 | AGUAAGCAAUAUUACGCUAC | -0.918 ± 0.3 | –
59 | GUUCAGCAAUAUUACGGGGU | -3.36 ± 0.17 | -1.73 ± 0.16
60 | GUUCAGCAAUAUUACGACGG | -4.42 ± 0.24 | -3.24 ± 0.37
61 | CAGCAGCAAUAUUACGUAGC | -4.02 ± 0.28 | -2.94 ± 0.26
62 | GAUUAGCAAUAUUACGGUAC | -2.14 ± 0.37 | -0.994 ± 0.22
63 | UGACAGCAAUAUUACGAUUC | -3.35 ± 0.17 | -2.09 ± 0.14
64 | ACCGAGCAAUAUUACGAUGC | -1.97 ± 0.14 | -1.56 ± 0.14
65 | ACUUAGCAAUAUUACGUACG | -1.45 ± 0.099 | -1.04 ± 0.13
66 | GAUAAGCAAUAUUACGAUAU | -1.13 ± 0.095 | -0.335 ± 0.15
67 | CACGAGCAAUAUUACGCCGG | -3.41 ± 0.22 | -2.6 ± 0.3
68 | UCGAAGCAAUAUUACGUGGA | -2.29 ± 0.14 | -2.46 ± 0.16
69 | CAGCAGCAAUAUUACGAGGA | -2.63 ± 0.2 | -2.42 ± 0.23
70 | UCCGAGCAAUAUUACGUACA | -2.89 ± 0.33 | –
71 | UUCGAGCAAUAUUACGGUCG | – | -1.91 ± 0.36
72 | AAUGAGCAAUAUUACGUGAU | -3.8 ± 0.29 | -0.708 ± 0.2
73 | CAGGAGCAAUAUUACGCGCG | -1.45 ± 0.14 | -0.0818 ± 0.14
74 | CUACAGCAAUAUUACGAGGA | -3.4 ± 0.2 | -3.21 ± 0.27
75 | CCAUAGCAAUAUUACGGCUA | -2.48 ± 0.25 | -1.89 ± 0.28
76 | CCUUAGCAAUAUUACGCUGG | -1.57 ± 0.18 | -2.43 ± 0.3
